Measured values taken from PMC11210774, “Critical domains for NACC2-NTRK2 fusion protein activation” (PLOS ONE, 2024).

Legend:
[1] = biological target: NACC2-NTRK2(ex4:ex13) fusion protein (UniProt Q96BF6); test: non-reducing SDS-PAGE and immunoblot of multimers; HEK293T lysates in E1A buffer (250 mM NaCl, 50 mM HEPES, 5 mM EDTA, 0.1% NP-40); non-reducing sample buffer (4% SDS, 10 mM NaPO4 pH 7.0); immunoblot for NACC2 or NTRK2; multimer/monomer band ratio by ImageJ, three replicates
[2] = biological target: NACC2(Y86A)-NTRK2 (UniProt Q96BF6); test: as above
[3] = biological target: NACC2(D31N/R45Q)-NTRK2 (UniProt Q96BF6); test: as above
[4] = biological target: the molecule itself; test: as above
[5] = biological target: NACC2(Y86A)-NTRK2 (UniProt Q96BF6); test: co-IP; fusion protein co-expressed with NACC2 in HEK293T; E1A buffer; immunoprecipitation with antibodies against NTRK2 and Protein A-Sepharose at 4°C, immunoblot for NACC2; ratio of NACC2 to the co-immunoprecipitated fusion by ImageJ
[6] = biological target: NACC2(D31N/R45Q)-NTRK2 (UniProt Q96BF6); test: as above
[7] = biological target: NACC2-NTRK2(ex4:ex13) fusion protein (UniProt Q96BF6); test: as above

NACC2-NTRK2(ex4:ex13) fusion protein (from UniProt Q96BF6 1-418; Q16620 397-822)
ratio of the multimer band to the monomer band [1]: 44%

NACC2(Y86A)-NTRK2 (from UniProt Q96BF6 1-418; Q16620 397-822)
ratio of the multimer band to the monomer band [2]: 12%

NACC2(D31N/R45Q)-NTRK2 (from UniProt Q96BF6 1-418; Q16620 397-822)
ratio of the multimer band to the monomer band [3]: 18%

B1: Nucleus Accumbens-associated protein 2 (NACC2), wild type (natural protein, human, UniProt Q96BF6 1-587, looked up)
chain: MSQMLHIEIPNFGNTVLGCLNEQRLLGLYCDVSIVVKGQAFKAHRAVLAASSLYFRDLFSGNSKSAFELPGSVPPACFQQILSFCYTGRLTMTASEQLVVMYTAGFLQIQHIVERGTDLMFKVSSPHCDSQTAVIEDAGSEPQSPCNQLQPAAAAAAPYVVSPSVPIPLLTRVKHEAMELPPAGPGLAPKRPLETGPRDGVAVAAGAAVAAGTAPLKLPRVSYYGVPSLATLIPGIQQMPYPQGERTSPGASSLPTTDSPTSYHNEEDEEDDEAYDTMVEEQYGQMYIKASGSYAVQEKPEPVPLESRSCVLIRRDLVALPASLISQIGYRCHPKLYSEGDPGEKLELVAGSGVYITRGQLMNCHLCAGVKHKVLLRRLLATFFDRNTLANSCGTGIRSSTSDPSRKPLDSRVLNAVKLYCQNFAPSFKESEMNVIAADMCTNARRVRKRWLPKIKSMLPEGVEMYRTVMGSAAASVPLDPEFPPAAAQVFEQRIYAERRGDAATIVALRTDAVNVDLSAAANPAFDAGEEVDGAGSVIQEVAAPEPLPADGQSPPQPFEQGGGGPSRPQTPAAAARRPEGTYAGTL
notes: NACC2, human, wild type; gene bought from Origene and subcloned into pCDNA3 by EcoRI and XbaI; Expressed alone (multimerization assay) or together with the fusion proteins (co-IP); also called wild-type NACC2; native NACC2; source: HEK293T, transfected (pCDNA3, CaCl2), in lysate (E1A buffer)
ratio of the multimer band to the monomer band [4]: 7%
ratio of NACC2 to the NACC2-NTRK2 fusion with which it was co-immunoprecipitated [5]: 15%
ratio of NACC2 to the NACC2-NTRK2 fusion with which it was co-immunoprecipitated [6]: 45%
ratio of NACC2 to the NACC2-NTRK2 fusion with which it was co-immunoprecipitated [7]: 72%
